MM43 IC50 (ug/mL), neutralisation of S-LV transduction and R001 IC50 (ug/mL), neutralisation of S-LV transduction data for two substances are collected here from patent US20250304996A1.

What all share (assay): cell-based or functional assay
For assay [1], the target named is SARS-CoV-2 S:G614+Δ19aa spike protein (encoded by pGM907, S-LV v02) (SARS-CoV-2) (UniProt P0DTC2).
Assay [2] addresses SARS-CoV-2 S:B.1.1351+Δ19aa spike protein (B.1.351, encoded by pGM970, S-LV v04) (SARS-CoV-2) (UniProt P0DTC2).
In assay [3] the target is SARS-CoV-2 S:B.1.1.7+Δ19aa spike protein (encoded by pGM965, S-LV v04) (SARS-CoV-2) (UniProt P0DTC2).

As to “MM43 neutralising antibody (mouse IgG1, SARS-CoV-2 S neutralising antibody, Sino Biological, Catalogue No. 40591-MM43)”, the values for the MM43 IC50 (ug/mL), neutralisation of S-LV transduction in assay [1] and in assay [2] were 0.8 µg/mL and 0.5 µg/mL, respectively.
On to “R001 neutralising antibody (rabbit IgG, SARS-CoV-2 S neutralising antibody, Sino Biological, Catalogue No. 40592-R001)”, for which the R001 IC50 (ug/mL), neutralisation of S-LV transduction in assay [1] stood at 0.06 µg/mL; in assay [3], 0.32 µg/mL.
